Consider 39 sequences from the supplement of paper PMC9170038.

Series [1] relates to MS2 coat protein. The experiment in a line: apparent KD of MS2 coat protein, switch ON state; designed switch direction (-1 OFF switch, 1 ON switch): -1; higher = weaker reporter binding. The note with it: FMN input: 0 or 200 uM; Eterna round: R93 (includes R88 designs). A digest of the protocol: (§1)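 SNAP-549-labelled MS2 coat protein was titrated onto designed RNA switches that had been transcribed on-chip from Illumina sequencing clusters. Amounts doubled from 0.7 or 1.5 nM to 3 µM in 100 mM Tris-HCl pH 7.5, 80 mM KCl, 4 mM MgCl2, with constant ligand or without. Apparent KD is the median per design of normalised cluster binding-curve fits.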

The test system of series [2] is MS2 coat protein. The series is described as follows: apparent KD of MS2 coat protein, switch OFF state (with FMN for OFF switches, without FMN for ON switches); designed switch direction (-1 OFF switch, 1 ON switch): -1; higher = weaker reporter binding. To be noted: FMN input: 0 or 200 uM; Eterna round: R93 (includes R88 designs). An outline of the steps:
as §1

On to “AAAAAACAUGAGGAUCACCCAUGUAAGGAUAUGCUGAAAAACACGGAAAAAACGUGCAGCAGAAGGUACAAAGA [Mat - Exclusion 1 - Eli mod - D96]”, for which the “apparent KD of MS2 coat protein” value turned out to be 18.3 nM in the series on MS2 coat protein [1] and 39.9 nM in the series on MS2 coat protein [2].
The matching figures for “AAAAAACAUGAGGAUCACCCAUGUAAGGAUAUGUAAAACCCAUAUAAAAAGGGAAAAAACAGAAGGUGCAAAAA [wbt round 1 mod 6]”: 35.1 nM and 30.4 nM.
The like results for “AAAAAACAUGAGGAUCACCCAUGUAAGGAUAUGUAAAAUAAAAGAAAAAUAAAGAAAAGCAGAAGGUACAUGAA [JL wbt mod 14]” were, in that order, 37 nM and 60.5 nM.
As to “AAAAAACAUGAGGAUCACCCAUGUCAGGAUAUCCGGUUCUUAAAAAAAAAGAGGCGUUGGAGAAGGGACAUUCC [Chica Displaced 12 - Jieux - Exclusion 1]”, the “apparent KD of MS2 coat protein” value in the series on MS2 coat protein [1] is 26.7 nM; in the series with MS2 coat protein [2], 41.7 nM.
As to “AAAAAACAUGAGGAUCACCCAUGUCAGGAUAUCGUAAAAAAAAAAAAAAAAAAAAAUGCGAGAAGGGACUGGAA [exclusion1-cac2]”, the “apparent KD of MS2 coat protein” value in the series with MS2 coat protein [1] stood at 86.9 nM; in the series on MS2 coat protein [2] it was 94.5 nM.
The matching figures for “AAAAAACAUGAGGAUCACCCAUGUCAGGAUAUCUGUAUUCAAUCCUCGGAUUGAAUACAGAGAAGGGACAUAAA [Ex1: 605]”: 46.2 nM and 126 nM.
The like results for “AAAAAACAUGAGGAUCACCCAUGUCAGGAUAUCUGUAUUCAAUCCUCGGAUUGAAUACAGAGAAGGGACAUGGG [Ex1: 601]” were, in that order, 22.6 nM and 18 nM.
The like results for “AAAAAACAUGAGGAUCACCCAUGUCAGGAUAUGCGAAGCAAAAAAAAAAAAAAGCGAAGUAGAAGGGACUAAAA [Exclusion1 Malc#6]” were, in that order, 24.4 nM and 40.1 nM.
For the sequence “AAAAAACAUGAGGAUCACCCAUGUCAGGAUAUGCUCAACAAUAUUCCAAAAAAGAACGGUAGAAGGGACAGGAA [Bilbo Confounded 25 - Jieux - Exclusion 1]”, the entries for the “apparent KD of MS2 coat protein” value with MS2 coat protein [1] and in the series with MS2 coat protein [2] were 30.4 nM and 22.3 nM, respectively.
Regarding “AAAAAACAUGAGGAUCACCCAUGUCAGGAUAUGCUCAGCAAUAUUCCAAUAAAGAACGGUAGAAGGGACAGGAA [Bilbo Confounded 24 - Jieux - Exclusion 1]”, the “apparent KD of MS2 coat protein” value in the series on MS2 coat protein [1] is 24.9 nM; in the series on MS2 coat protein [2], 26.6 nM.
The matching figures for “AAAAAACAUGAGGAUCACCCAUGUGAGGAUAUCCAGAAGGGAAUAAAAUAACUCGAAAGGAGAAGGCGCAAAAA [Ex 1 May 34]”: 31.8 nM and 26.2 nM.
Regarding “AAAAAACAUGAGGAUCACCCAUGUGAGGAUAUCCUGAAGGGAAUAAAAUAACUCGAAAGGAGAAGGCGCAAAAA [Ex 1 May 32]”, the “apparent KD of MS2 coat protein” value in the series on MS2 coat protein [1] stood at 35.2 nM; in the series on MS2 coat protein [2], 33 nM.
The like results for “AAAAAACAUGAGGAUCACCCAUGUGAGGAUAUGAAAAUACUAAGACAACUGUAAUCAAUCAGAAGGCACAACAA [JR_Exc--1_Sub1208]” were, in that order, 18.8 nM and 19.6 nM.
The like results for “AAAAAACAUGAGGAUCACCCAUGUGAGGAUAUGCGAAAAUAAAAUAAAAUAAUAAAAAGCAGAAGGCACAAAAA [58%, Sh'dynasty, 1]” were, in that order, 67.7 nM and 89.3 nM.
The matching figures for “AAAAACCGAGGAUAUACAUGAGGAUCACCCAUGUAAAAAAAAAAAAAGGGAAAAAAAAGUAGAAGGCGGAAAAA [Djehuti Sekhemresementawy]”: 26.2 nM and 34.8 nM.
With “AAAAAGAGAGGAUAUACAUGAGGAUCACCCAUGUGAAAAAAAAAAAAAGGGAAAAGAUGUAGAAGGCUCAAAAA [65%, Moding Exclusion3-cac2, 16]”, the “apparent KD of MS2 coat protein” value was found to be 30.4 nM in the series on MS2 coat protein [1] and 32.1 nM in the series on MS2 coat protein [2].
The matching figures for “AAAAAGCGAGGAUAUACAUAGCUAAGACAUGUAAGCGAAAAACAUGAGGAUCACCCAUGUAGAAGGCGCAAAAA [Exclusion2-02]”: 16.8 nM and 16.5 nM.
The like results for “AAAAAGCGAGGAUAUACUAAAAAACCUCAAAAAAAAAAAAAACAUGAGGAUCACCCAUGUAGAAGGCGCAAAAA [JR_Exc002_Sub001]” were, in that order, 86.1 nM and 113 nM.
For “AAAAAGCGAGGAUAUGCAAGAAAAAAAAAAAAAAAAAAGGGACAUGAGGAUCACCCAUGUAGAAGGCGCAAAAA [Diamond 65]”, the “apparent KD of MS2 coat protein” value in the series with MS2 coat protein [1] was determined as 54.9 nM; with MS2 coat protein [2], 38 nM.
On to “AAAAAGCUAGGAUAUACAUGAGGAUCACCCAUGUAAAAAAAAAAAAAGGGAAAAAAAAGUAGAAGGAGCAAAAA [Merankhre Mentuhotep VI]”, for which the results for the “apparent KD of MS2 coat protein” value in the series with MS2 coat protein [1] and in the series with MS2 coat protein [2] were 18.4 nM and 26 nM, respectively.
For the sequence “AAAAAGGCAGGAUAUACAUGAGGAUCACCCAUGUAAAAAAAAAAAAAAGGGAAAAAAAGUAGAAGGGCCAAAAA [Along]”, the “apparent KD of MS2 coat protein” value in the series with MS2 coat protein [1] was found to be 31.1 nM; with MS2 coat protein [2], 53.4 nM.
For “AAAAAGGCAGGAUAUACAUGAGGAUCACCCAUGUAAAAAAAAACAAGAGAAAAAAAAUGUAGAAGGGCCAAAAA [Ex3 Malc#3]”, the “apparent KD of MS2 coat protein” value in the series on MS2 coat protein [1] worked out at 26.8 nM; in the series on MS2 coat protein [2], 26 nM.
Consider “AAAAAGGCAGGAUAUGCAUACACACAAAAAAAAAAACUGGGACAUGAGGAUCACCCAUGUAGAAGGGCCAAAAA [Dora Explored 8 - Jieux - Exclusion 2]”, for which the “apparent KD of MS2 coat protein” value in the series on MS2 coat protein [1] was 151 nM; with MS2 coat protein [2], 54 nM.
Regarding “AAAAAGGGAGGAUAUACAUGAGGAUCACCCAUGUAACAGACGAAAAAGAGUCUGAAAAGUAGAAGGCCCAAAAA [65%, Moding Exclusion3-cac2, 7]”, the “apparent KD of MS2 coat protein” value with MS2 coat protein [1] amounted to 24.7 nM; with MS2 coat protein [2], 19.2 nM.
For “AAAAAGGGAGGAUAUACGAAAUAGGGAAACCUAAAAAAGGGACAUGAGGAUCACCCAUGUAGAAGGCCCAAGAA [Clint Eastwood 64% 6]”, the “apparent KD of MS2 coat protein” value with MS2 coat protein [1] was 39 nM; in the series with MS2 coat protein [2], 223 nM.
The matching figures for “AAAAAGGGAGGAUAUGCAUACACAAAAAAAAAAAAAAAAAAACAUGAGGAUCACCCAUGUAGAAGGCCCAAAAA [Dora Explored 3 - Jieux - Exclusion 2]”: 37.4 nM and 28.9 nM.
The matching figures for “AAAAAGUCAGGAUAUACAAAAGUGCGAAAGCACAAAAAGGGACAUGAGGAUCACCCAUGUAGAAGGGACAAGAA [Married to this design, 61% 4]”: 73.3 nM and 124 nM.
The like results for “AAAAAGUCAGGAUAUGCGAAGGCGUCUGAUAGACGAGGCUAGCAGAAGGGACAUGAGGAUCACCCAUGUAAAAA [Mat - Exclusion 4 - Rerun - D81]” were, in that order, 50.5 nM and 45 nM.
On to “AAAAAGUCAGGAUAUGCGAAGGCGUCUGAUAGACGAGGCUAGCAGAAGGGACAUGAGGAUCACCCAUGUAAAAA [Mat - Mod of Nando]”, for which the “apparent KD of MS2 coat protein” value came out at 50.5 nM with MS2 coat protein [1] and 45 nM in the series on MS2 coat protein [2].
The matching figures for “AAAAAGUCAGGAUAUGCGAAGGCGUCUGAUAGACGAGGCUAGCAGAAGGGACAUGAGGAUCACCCAUGUGAAAA [Mat - Mod of Nando 64% 1]”: 57.9 nM and 143 nM.
The matching figures for “AAAAAGUCAGGAUAUGUCAAAAGUCACAAAAGUGACAAAAGACAGAAGGGACAUGAGGAUCACCCAUGUGGAAA [Mod of Eli - Late G segment 1]”: 89.3 nM and 134 nM.
The like results for “AAAAAGUGAGGAUAUACAUGAAAAAAAAAAAAAAAAAAAAAACAUGAGGAUCACCCAUGUAGAAGGCGCAAAAA [GC GU GC sandwich]” were, in that order, 31.5 nM and 43.1 nM.
In the case of “AAAAAGUGAGGAUAUACAUGAGGAUCACCCAUGUGAAGGGAAGAAAGAAAGAAAGAAAGUAGAAGGCACAAAAA [Default title]”, the results for the “apparent KD of MS2 coat protein” value with MS2 coat protein [1] and in the series on MS2 coat protein [2] were 51.1 nM and 222 nM, respectively.
The like results for “AAAAAGUGAGGAUAUACGCUGUGGAGUAGACACAACCAGGCGUAGAAGGCACAUGAGGAUCACCCAUGUCCAAA [EX4 Malc#18]” were, in that order, 23.9 nM and 44.1 nM.
On to “AAAAAGUGAGGAUAUAGCAAAGGUCACGAAAGUGACAAAGGCUAGAAGGCACAUGAGGAUCACCCAUGUCCAAG [Mat - Exclusion 4 - Eli mod - D98]”, for which the “apparent KD of MS2 coat protein” value in the series on MS2 coat protein [1] turned out to be 28.6 nM; in the series with MS2 coat protein [2] it was 56.5 nM.
The matching figures for “AAAAAGUGAGGAUAUUCGGAAGGGAAAGCGCAAACCCAACCGAAGAAGGCACAUGAGGAUCACCCAUGUGAAAA [Ecls4-III 65% - Early + late G segment 1]”: 21.2 nM and 33 nM.
In the case of “AAAAAGUGAGGAUAUUCGGAAGGGAAAGCGCAAACCCAACCGAAGAAGGCACAUGAGGAUCACCCAUGUGGAAG [Mat - Exaclusion 4 - Eli mod - D57]”, the results for the “apparent KD of MS2 coat protein” value with MS2 coat protein [1] and in the series on MS2 coat protein [2] were 29.5 nM and 30.2 nM, respectively.
With “AAAAAGUUAGGAUAUACAUGAGGAUCACCCAUGUGCACAUAUGGAGAAUAUGGUAGUAGUAGAAGGGACAAAAA [EX2 Malc#16]”, the “apparent KD of MS2 coat protein” value with MS2 coat protein [1] turned out to be 30.3 nM; in the series on MS2 coat protein [2] it was 33.3 nM.
The like results for “AAAAAUGGAGGAUAUACAUGAGGAUCACCCAUGUGUGGGCAUACUGUGUCGGCGUCAGGUAGAAGGCCAAAAAA [Gilly Gone Silly 27 - Jieux - Exclusion 3]” were, in that order, 36.5 nM and 47.8 nM.
